Assays:
[1] = tested on: tumors; format: in vivo, mice
Description: FIG. 8A and FIG. 8B depict tumor responses after treatment with a SADA-BiDE construct P53-BIDE(NOHIS) in vivo. FIG. 8A depicts a graph showing the change in tumor volume after administration of 1 (circles) or 4 (squares) doses of P53-BiDE. As a reference other mice were also treated with IgG-BiDE (Cheal, S. M. et al. (2014) Mol Cancer Ther) and clearing agent (triangles). FIG. 8B provides images of an exemplary mouse treated with a single dose of P53-BIDE(NOHIS) from the experimental data shown in FIG. 8A. Images are shown of the mouse on days 1, 8 and 15 with a box around the site of the tumor.
In mice with significant tumor burden (>500 mm^3 tumor volumes) a single 250 μg (1.25 nmol) dose of P53-BIDE(NOHIS) was administered followed 24 hour later by administration of 2mCi of ^177Lu-Bn-DOTA.

[2] = Blood and tumor activity after P53-BiDE(noHIS) and 177Lu-Bn-DOTA administration (FIG. 6A, 6D, 6E); format: in vivo, mice; details: mouse, in vivo
Description: FIG. 6A to FIG. 6E depict pharmacokinetics of exemplary SADA-BiDE constructs in vivo. FIG. 6A depicts activity over time after P53-BiDE(noHIS) and Bn-DOTA administration. Each line represents one group, with three mice per group. Triangles denote a group that received P53-BiDE(noHIS) followed by clearing agent (CA) 72 hours later. Squares denote a group that received P53-BiDE(noHIS) without any clearing agent before ^177Lu-Bn-DOTA administration. Circles denote a group that only received ^177Lu-Bn-DOTA but not any SADA-BiDE. Dashed lines correspond to the measured blood activity, while solid lines correspond to the activity measured in the tumor. […] FIG. 6B depicts blood activity of radiolabeled 131I-SADA-BiDE in tumor-free mice. Activity measurements were normalized to the initial measurement for each group. Each line represents one group, with 4-5 mice per group. (+) symbols denote P53-BiDE, (X) symbols denote P63-BiDE and circles denote P73-BiDE. FIG. 6C depicts blood activity in tumor bearing mice treated with either IgG-BiDE (Cheal, S. M. et al. (2014) Mol Cancer Ther) or SADA-BiDE and then injected with ^177Lu-Bn-DOTA. Each line represents one group, with 3-5 mice per group. Circles denote a group that received IgG-BiDE (Cheal, S. M. et al. (2014) Mol Cancer Ther) followed by clearing agent 48 hrs later. Squares denote a group that received P53-BiDE. Diamonds denote a group that received P63-BiDE. Hexagons denote a group that received P73-BiDE. No SADA-BiDE treated mice received any clearing agent. A representative anti-tumor IgG and ^177Lu-Bn-DOTA alone clearance curves were added as a reference. (+) symbols with a dotted line denote the ^124I-labeled anti-GD2 IgG, and (x) symbols with a dotted line denote ^177Lu-Bn-DOTA alone. […]
Importantly, even though, as described in the previous examples, P53-BIDE(NOHIS), P53-BiDE, P63-BiDE and P73-BiDE is rapidly cleared from the serum, total tumor uptake of was not affected. With both 24 hours and 72 hours between P53-BIDE(NOHIS) and ^177Lu-Bn-DOTA injections, significant activity (˜15% ID/g) was measured at the tumor site (FIG. 6D) […]

[3] = tested on: human T cells; test: T cell cytotoxicity improvement from SADA-Cytokine stimulation; format: cell-based; details: incubated three days; cytotoxicity over a 4 hr period, GD2(+) cell line
Description: (§1) […] to FIG. 11D depict in vitro activity of P53-Cytokine, P63-Cytokine and P73-Cytokine SADA-Cytokines. FIG. 11A depicts a graph showing SADA-Cytokine dependent proliferation. The dose dependent proliferative response of TIB214 cells to each of P53-Cytokine (circles), P63-Cytokine (squares) and P73-Cytokine (triangles) is shown. FIG. 11B depicts a graph showing NK Cell cytotoxicity improvement from SADA-Cytokine stimulation. Bar graph summarizes peak cytotoxicity improvement from exposure of human NK cells to each SADA-Cytokine for 3 days. Cytotoxicity was assessed over a 4 hr period using a GD2(+) cell line that is sensitive to NK mediated killing and an anti-GD2 IgG (Ahmed, M. et al. (2015) OncoImmunology). Control (black bar), P53-Cytokine (medium gray bar), P63-Cytokine (dark gray bar) and P73-Cytokine (light gray bar). FIG. 11C depicts a graph showing T Cell cytotoxicity improvement from SADA-Cytokine stimulation. Bar graph summarizes peak cytotoxicity improvement from exposure of human T cells to each SADA-Cytokine for 3 days. Cytotoxicity was assessed over a 4 hr period using a GD2(+) cell line and a T-cell engaging anti-GD2 IgG-scFv bispecific (Xu, H. et al. (2015) Cancer immunology research). Control (black bar), P53-Cytokine (medium gray bar), P63-Cytokine (dark gray bar) and P73-Cytokine (light gray bar). FIG. 11D depicts a graph showing tumor growth in DKO mice with GD2(+) tumors implanted subcutaneously. Each mouse was treated with PBMCs (gray triangles) and a low dose of an anti-tumor IgG-scFv (Xu, H. et al. (2015) Cancer immunology research) and additional cytokines. Untreated tumors grew out very quickly (black lines). Tumors treated with the IgG-scFv and an Fc-Cytokine (Liu et al. 2016 JBC, http://www.jbc.org/content/291/46/23869) with a mutation to improve binding (light gray line) shrunk tumors slower than mice treated with the IgG-scFv and SADA-Cytokine (dark gray line).
(§2) This example documents the in vitro activity of exemplary SADA-cytokine multimers. […] Additionally, each complex could prime effector immune cells to kill more strongly. […]

[4] = tested on: Human NK cells; test: NK cell cytotoxicity improvement from SADA-Cytokine stimulation; format: cell-based; details: 1 nM for three days; cytotoxicity over a 4 hr period
Description: as §1, §2

[5] = tested on: TIB214, an IL15 sensitive cell line; test: SADA-Cytokine dependent proliferation; format: cell-based
Description: as §1, §2

B1: P53-BiDE(noHIS): hu3F8-scFv, huC825-scFv, huP53-tet, GS linker, IgG3 spacer, lacks terminal HIS tag; SEQ ID NO: 17 (protein)
chain: EIVMTQTPATLSVSAGERVTITCKASQSVSNDVTWYQQKPGQAPRLLIYSASNRYSGVPARFSGSGYGTEFTFTISSVQSEDFAVYFCQQDYSSFGCGTKLEIKRGGGGSGGGGSGGGGSQVQLVESGPGVVQPGRSLRISCAVSGFSVTNYGVHWVRQPPGKCLEWLGVIWAGGITNYNSAFMSRLTISKDNSKNTVYLQMNSLRAEDTAMYYCASRGGHYGYALDYWGQGTLVTVSSGGGGSGGGGSGGGGSGGGGSHVQLVESGGGLVQPGGSLRLSCAASGFSLTDYGVHWVRQAPGKGLEWLGVIWSGGGTAYNTALISRFTISRDNSKNTLYLQMNSLRAEDTAVYYCARRGSYPYNYFDAWGCGTLVTVSSGGGGSGGGGSGGGGSQAVVTQEPSLTVSPGGTVTLTCGSSTGAVTASNYANWVQQKPGQCPRGLIGGHNNRPPGVPARFSGSLLGGKAALTLLGAQPEDEAEYYCALWYSDHWVIGGGTKLTVLGTPLGDTTHTSGKPLDGEYFTLQIRGRERFEMFRELNEALELKDAQAGKEPGGSGGA
- clinical or histologic toxicity ([1]; mouse, in vivo): did not induce any clinical or histologic toxicity
- tumor response ([1]; tumor volumes >500 mm^3, single 250 μg (1.25 nmol) dose, 2mCi 177Lu-Bn-DOTA 24 hour later, no CA): completely ablate tumors in all four mice treated
- activity measured at the tumor site [2]: ~15 % ID/g
- clearance from blood without clearing agent [2]: almost completely cleared
- retention at the target site [2]: stably retained at the target site

B2: P53-Cytokine: IL15Rα, huP53-tet, IgG3 spacer; associates non-covalently with soluble IL15; SEQ ID NO: 57 (protein)
chain: ITCPPPMSVEHADIWVKSYSLYSRERYICNSGFKRKAGTSSLTECVLNKATNVAHWTTPSLKCIRTPLGDTTHTSGKPLDGEYFTLQIRGRERFEMFRELNEALELKDAQAGKEPGGSGGAPHHHHHH
- IgG-scFv dependent killing of tumor cells by T cells [3]: strongly increased IgG-scFv dependent killing
- NK cell cytotoxic response against a GD2(+) neuroblastoma cell line [4]: increased antibody-independent cytotoxic response
- proliferation of TIB214 relative to untreated control cells [5]: robust proliferation

B3: P63-Cytokine: IL15Rα, huP63-tet, IgG3 spacer; associates non-covalently with soluble IL15; SEQ ID NO: 59 (protein)
chain: ITCPPPMSVEHADIWVKSYSLYSRERYICNSGFKRKAGTSSLTECVLNKATNVAHWTTPSLKCIRTPLGDTTHTSGRSPDDELLYLPVRGRETYEMLLKIKESLELMQYLPQHTIETYRQQQQQQHQHLLQKQGGSGGAPHHHHHH
- IgG-scFv dependent killing of tumor cells by T cells [3]: strongly increased IgG-scFv dependent killing
- NK cell cytotoxic response against a GD2(+) neuroblastoma cell line [4]: increased antibody-independent cytotoxic response
- proliferation of TIB214 relative to untreated control cells [5]: robust proliferation

B4: P73-Cytokine: IL15Rα, huP73-tet, IgG3 spacer; associates non-covalently with soluble IL15; SEQ ID NO: 61 (protein)
chain: ITCPPPMSVEHADIWVKSYSLYSRERYICNSGFKRKAGTSSLTECVLNKATNVAHWTTPSLKCIRTPLGDTTHTSGRHGDEDTYYLQVRGRENFEILMKLKESLELMELVPQPLVDSYRQQQQLLQRPGGSGGAPHHHHHH
- IgG-scFv dependent killing of tumor cells by T cells [3]: strongly increased IgG-scFv dependent killing
- NK cell cytotoxic response against a GD2(+) neuroblastoma cell line [4]: increased antibody-independent cytotoxic response
- proliferation of TIB214 relative to untreated control cells [5]: robust proliferation
